Data reported in article PMC8887465.

Key:
[1] = biological target: Staphylococcus aureus PemK toxin, wild type (Staphylococcus aureus CH-91 (plasmid pCH91)); assay: SEC-MALS
[2] = biological target: T1, PemK WT (Staphylococcus aureus CH-91 (plasmid …, UniProt L7PFJ6 1-112)); assay: NMR titration
T1 sequence: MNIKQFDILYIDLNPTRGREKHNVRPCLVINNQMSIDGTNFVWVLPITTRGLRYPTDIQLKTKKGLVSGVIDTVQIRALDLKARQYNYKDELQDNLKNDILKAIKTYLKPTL

“Staphylococcus aureus PemK toxin, wild type (enzyme)” was tested, and the stoichiometry N [1] was 2.

UUUAUUAA (ssRNA, deoxyuridine at position 3 (dU3), rest RNA) [ssRNA UUdUAUUAA]: binds [2].
